# Assays:
# [1] = molecular target: BCL2 peptide Ac-…-amide (amino acids 41-54 of human BCL2 with linkers) (human); test: imaging mass cytometry; peptide 2.50E-04 M in core (second core); Ab 10 ug/ml
# [2] = molecular target: BCL2 peptide Ac-…-amide (amino acids 41-54 of human BCL2 with linkers) (human); test: imaging mass cytometry; peptide 2.50E-05 M in core (second core); Ab 1 ug/ml
# [3] = molecular target: BCL2 peptide Ac-…-amide (amino acids 41-54 of human BCL2 with linkers) (human); test: imaging mass cytometry; peptide 2.50E-08 M in core; Ab 5 ug/ml
# [4] = molecular target: Bovine serum albumin (BSA; Ultra Pure) (bovine) (UniProt P02769); test: imaging mass cytometry; no peptide (background cores)
# Sequence of UniProt P02769 (P02769 25-607 limits assumed): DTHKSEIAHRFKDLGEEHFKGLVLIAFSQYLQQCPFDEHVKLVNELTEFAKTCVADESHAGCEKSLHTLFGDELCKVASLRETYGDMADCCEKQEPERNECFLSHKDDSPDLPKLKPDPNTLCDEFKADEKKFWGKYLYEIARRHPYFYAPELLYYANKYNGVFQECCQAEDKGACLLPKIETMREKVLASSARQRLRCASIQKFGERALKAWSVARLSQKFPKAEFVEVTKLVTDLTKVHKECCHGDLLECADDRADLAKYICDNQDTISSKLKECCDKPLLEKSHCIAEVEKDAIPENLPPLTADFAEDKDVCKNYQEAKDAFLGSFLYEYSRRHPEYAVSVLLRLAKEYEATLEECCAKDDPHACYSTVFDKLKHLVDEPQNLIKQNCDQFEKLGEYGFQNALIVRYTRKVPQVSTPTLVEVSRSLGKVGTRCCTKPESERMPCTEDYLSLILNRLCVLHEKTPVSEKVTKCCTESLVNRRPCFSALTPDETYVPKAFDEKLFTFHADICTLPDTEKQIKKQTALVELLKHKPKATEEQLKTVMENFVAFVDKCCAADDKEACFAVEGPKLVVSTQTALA
# [5] = molecular target: Bovine serum albumin (BSA; Ultra Pure) (bovine) (UniProt P02769); test: imaging mass cytometry; no peptide (background core); Ab 10 ug/ml
# [6] = molecular target: BCL2 peptide Ac-…-amide (amino acids 41-54 of human BCL2 with linkers) (human); test: imaging mass cytometry; peptide 2.50E-04 M in core (second core); Ab 5 ug/ml
# [7] = molecular target: BCL2 peptide Ac-…-amide (amino acids 41-54 of human BCL2 with linkers) (human); test: imaging mass cytometry; peptide 2.50E-07 M in core; Ab 1 ug/ml
# [8] = molecular target: BCL2 peptide Ac-…-amide (amino acids 41-54 of human BCL2 with linkers) (human); test: imaging mass cytometry; peptide 2.50E-06 M in core (second core); Ab 10 ug/ml
# [9] = molecular target: BCL2 peptide Ac-…-amide (amino acids 41-54 of human BCL2 with linkers) (human); test: imaging mass cytometry; peptide 2.50E-08 M in core (second core); Ab 10 ug/ml
# [10] = molecular target: BCL2 peptide Ac-…-amide (amino acids 41-54 of human BCL2 with linkers) (human); test: imaging mass cytometry; peptide 2.50E-08 M in core
# [11] = molecular target: BCL2 peptide Ac-…-amide (amino acids 41-54 of human BCL2 with linkers) (human); test: imaging mass cytometry; peptide 2.50E-07 M in core (second core); Ab 5 ug/ml
# [12] = molecular target: BCL2 peptide Ac-…-amide (amino acids 41-54 of human BCL2 with linkers) (human); test: imaging mass cytometry; peptide 2.50E-06 M in core
# [13] = molecular target: BCL2 peptide Ac-…-amide (amino acids 41-54 of human BCL2 with linkers) (human); test: imaging mass cytometry; peptide 2.50E-06 M in core; Ab 5 ug/ml
# [14] = molecular target: BCL2 peptide Ac-…-amide (amino acids 41-54 of human BCL2 with linkers) (human); test: imaging mass cytometry; peptide 2.50E-04 M in core; Ab 5 ug/ml
# [15] = molecular target: Bovine serum albumin (BSA; Ultra Pure) (bovine) (UniProt P02769); test: imaging mass cytometry; no peptide (background core); Ab 1 ug/ml
# [16] = molecular target: Bovine serum albumin (BSA; Ultra Pure) (bovine) (UniProt P02769); test: imaging mass cytometry; no peptide (background core); Ab 5 ug/ml
# [17] = molecular target: BCL2 peptide Ac-…-amide (amino acids 41-54 of human BCL2 with linkers) (human); test: imaging mass cytometry; peptide 2.50E-05 M in core; Ab 5 ug/ml
# [18] = molecular target: BCL2 peptide Ac-…-amide (amino acids 41-54 of human BCL2 with linkers) (human); test: imaging mass cytometry; peptide 2.50E-06 M in core; Ab 10 ug/ml
# [19] = molecular target: Bovine serum albumin (BSA; Ultra Pure) (bovine) (UniProt P02769); test: imaging mass cytometry; no peptide (second background core); Ab 5 ug/ml
# [20] = molecular target: BCL2 peptide Ac-…-amide (amino acids 41-54 of human BCL2 with linkers) (human); test: imaging mass cytometry; peptide 2.50E-06 M in core (second core); Ab 5 ug/ml
# [21] = molecular target: Bovine serum albumin (BSA; Ultra Pure) (bovine) (UniProt P02769); test: imaging mass cytometry; no peptide (second background core); Ab 10 ug/ml
# [22] = molecular target: Bovine serum albumin (BSA; Ultra Pure) (bovine) (UniProt P02769); test: imaging mass cytometry; no peptide (second background core); Ab 1 ug/ml
# [23] = molecular target: BCL2 peptide Ac-…-amide (amino acids 41-54 of human BCL2 with linkers) (human); test: imaging mass cytometry; peptide 2.50E-04 M in core; Ab 1 ug/ml
# [24] = molecular target: BCL2 peptide Ac-…-amide (amino acids 41-54 of human BCL2 with linkers) (human); test: imaging mass cytometry; peptide 2.50E-04 M in core; Ab 10 ug/ml
# [25] = molecular target: BCL2 peptide Ac-…-amide (amino acids 41-54 of human BCL2 with linkers) (human); test: imaging mass cytometry; peptide 2.50E-08 M in core (second core); Ab 1 ug/ml
# [26] = molecular target: BCL2 peptide Ac-…-amide (amino acids 41-54 of human BCL2 with linkers) (human); test: imaging mass cytometry; peptide 2.50E-04 M in core (second core); Ab 1 ug/ml
# [27] = molecular target: BCL2 peptide Ac-…-amide (amino acids 41-54 of human BCL2 with linkers) (human); test: imaging mass cytometry; peptide 2.50E-07 M in core; Ab 5 ug/ml
# [28] = molecular target: BCL2 peptide Ac-…-amide (amino acids 41-54 of human BCL2 with linkers) (human); test: imaging mass cytometry; peptide 2.50E-05 M in core; Ab 10 ug/ml
# [29] = molecular target: BCL2 peptide Ac-…-amide (amino acids 41-54 of human BCL2 with linkers) (human); test: imaging mass cytometry; peptide 2.50E-08 M in core; Ab 10 ug/ml
# [30] = molecular target: BCL2 peptide Ac-…-amide (amino acids 41-54 of human BCL2 with linkers) (human); test: imaging mass cytometry; peptide 2.50E-05 M in core (second core); Ab 5 ug/ml
# [31] = molecular target: BCL2 peptide Ac-…-amide (amino acids 41-54 of human BCL2 with linkers) (human); test: imaging mass cytometry; peptide 2.50E-05 M in core (second core); Ab 10 ug/ml
# Sequence of BCL2 peptide Ac-…-amide (amino acids 41-54 of human BCL2 with linkers) (human) (peptide, as listed by the source): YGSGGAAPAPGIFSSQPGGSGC
substance,measurement,setting,value
Fluidigm EPR17509-^146Nd antibody,Integrated Ion counts (per 150 micron square ROI),[1],880000 ion counts
same,Integrated Ion counts (per 150 micron square ROI),[2],43900 ion counts
same,Integrated Ion counts (per 150 micron square ROI),[3],976 ion counts
same,Average Ion count,[4],1280 ion counts
same,Integrated Ion counts (per 150 micron square ROI),[5],979 ion counts
same,Integrated Ion counts (per 150 micron square ROI),[6],37400 ion counts
same,Integrated Ion counts (per 150 micron square ROI),[7],1580 ion counts
same,Integrated Ion counts (per 150 micron square ROI),[8],3910 ion counts
same,Integrated Ion counts (per 150 micron square ROI),[9],1720 ion counts
same,Average Ion count,[10],1310 ion counts
same,Ion count above background,[10],134 ion counts
same,Moles ^146Nd Ab detected per ROI,[10],7.5e-20 mol
same,^146Nd Ab/peptide,[10],3.33%
same,Integrated Ion counts (per 150 micron square ROI),[11],1400 ion counts
same,Average Ion count,[12],6400 ion counts
same,Ion count above background,[12],522 ion counts
same,Moles ^146Nd Ab detected per ROI,[12],2.93e-18 mol
same,^146Nd Ab/peptide,[12],1.3%
same,Integrated Ion counts (per 150 micron square ROI),[13],4290 ion counts
same,Integrated Ion counts (per 150 micron square ROI),[14],35300 ion counts
same,Integrated Ion counts (per 150 micron square ROI),[15],1350 ion counts
same,Integrated Ion counts (per 150 micron square ROI),[16],1080 ion counts
same,Integrated Ion counts (per 150 micron square ROI),[17],16600 ion counts
same,Integrated Ion counts (per 150 micron square ROI),[18],789000 ion counts
same,Integrated Ion counts (per 150 micron square ROI),[19],2380 ion counts
same,Integrated Ion counts (per 150 micron square ROI),[20],3900 ion counts
same,Integrated Ion counts (per 150 micron square ROI),[21],1160 ion counts
same,Integrated Ion counts (per 150 micron square ROI),[22],1310 ion counts
same,Integrated Ion counts (per 150 micron square ROI),[23],59300 ion counts
same,Integrated Ion counts (per 150 micron square ROI),[24],87400 ion counts
same,Integrated Ion counts (per 150 micron square ROI),[25],1410 ion counts
same,Integrated Ion counts (per 150 micron square ROI),[26],42200 ion counts
same,Integrated Ion counts (per 150 micron square ROI),[27],1370 ion counts
same,Integrated Ion counts (per 150 micron square ROI),[28],39300 ion counts
same,Integrated Ion counts (per 150 micron square ROI),[29],1230 ion counts
same,Integrated Ion counts (per 150 micron square ROI),[30],15100 ion counts
same,Integrated Ion counts (per 150 micron square ROI),[31],48700 ion counts
